Experimental data reported in the supplement of paper PMC9170038.

Tested on: MS2 coat protein
Experiment: apparent KD of MS2 coat protein; designed switch direction (-1 OFF switch, 1 ON switch): -1; higher = weaker reporter binding
Procedure, shortened: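 Designed RNA switches sharing common flanks were transcribed on Illumina chips by stalled E. coli RNA polymerase. They were titrated with SNAP-549-labelled MS2 coat protein, from 0.7 or 1.5 nM doubling to 3 µM, in Tris-HCl pH 7.5 buffer with KCl, MgCl2, BSA, DTT, tRNA and Tween-20. Titrations ran without input, with 200 uM small-molecule ligand, or with an oligonucleotide input. The apparent KD of each design is the median over its clusters, after curve-fitting of normalised cluster fluorescence.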

[1] = Eterna round: R95, input ligand: FMN 200 uM
[2] = Eterna round: R95, input ligand: microRNA oligo, concentration not stated
[3] = Eterna round: R95, input ligand: none
[4] = input ligand: microRNA oligo, concentration not stated

Sequence	apparent KD of MS2 coat protein [2] [nM]	apparent KD of MS2 coat protein (input ligand: FMN 200 uM) [nM]	apparent KD of MS2 coat protein (input ligand: none) [nM]	other results
CUCUUGUUAGGAUAUCAAACCAGCGGCGGAACCGCUGGUAGUGAGAAGGGACAUGAGGAUCACCCAUGUAAGAA [Bige] (puzzle: Exclusion 4)	51.1			apparent KD of MS2 coat protein [1]: 108 nM; apparent KD of MS2 coat protein [3]: 61.3 nM
CUGAGCUCAGGAUAUACAUGAGGAUCACCCAUGUGUUCCUGCGACGUUAGUUGCACAUGUAGAAGGGAGUUCGG [Less Extended Mod of JL - ex3-3.35 Brourd mod] (puzzle: Exclusion 3)	218			
CUGAGUAGUCAGGAUAUGUGGUACAAAAGUACAGCAGAAGGGAUUACAUGAGGAUCACCCAUGUUUACUUCAUG [Omei Ex6 B16] (Eterna round: R97, puzzle: Exclusion 6)		57.9	32.6	
CUGAUGGACUAGGAUAUCCUCAUCGAUCAGGGAGGAGAAGGAGUCACAUGAGGAUCACCCAUGUGAUGGUAAAA [Atqubi] (puzzle: Exclusion 6)	11.9			apparent KD of MS2 coat protein [1]: 14.9 nM; apparent KD of MS2 coat protein [3]: 13.6 nM
CUGAUGUUAGGAUAUCAGGCGCCCGCCACUGGCAGGGCGCAUGAGAAGGGACAUGAGGAUCACCCAUGUAGUAA [Anorbeus] (puzzle: Exclusion 4)	26.3			
CUGCUCCGUGUAGGAUAUCCGCGCAACCAAUGCGGAGAAGGACAUGAGGAUCACCCAUGUAUGUUAUUAUCACGUGAAGCGUCC [Design 26] (Eterna round: R96, puzzle: Exclusion NG 1)		24.8	24.8	apparent KD of MS2 coat protein [4]: 13.7 nM
CUGCUCCGUGUAGGAUAUGCAUGCAACCAAUAUGCAGAAGGACAUGAGGAUCACCCAUGUAUGUUAUUAUCACGUGAAGCGUCC [Design 22] (Eterna round: R96, puzzle: Exclusion NG 1)		27.1	29.8	apparent KD of MS2 coat protein [4]: 19.5 nM
CUGCUGGAGCUUUGCUUUAGUCGUACAUGAGGAUCACCCAUGUAGGAUAUGGUAGGCUUUGCUUACUAGAAGGAUGGAGUGGUC [salish99_ExNG3_r04_607] (Eterna round: R96, puzzle: Exclusion NG 3)		166	50.2	apparent KD of MS2 coat protein [4]: 38.1 nM
CUGCUGGAGCUUUGCUUUGGUCGUACAUGAGGAUCACCCAUGUAGGAUAUGGUAGGCUUUGCUUGCUAGAAGGAUAGAGUGGUC [salish99_ExNG3_r04_609] (Eterna round: R96, puzzle: Exclusion NG 3)		197	88.8	apparent KD of MS2 coat protein [4]: 77.5 nM
CUGGUCCGAGGAUAUAUUAAGUGAAACAUGAGGAUCACCCAUGUAAUUUGAUGGAUGUAAAUAGAAGGCGGACUAG [JL-ex5-3.09] (puzzle: Exclusion 5)	37.1			apparent KD of MS2 coat protein [1]: 29.4 nM; apparent KD of MS2 coat protein [3]: 43.8 nM
CUGGUCCGAGGAUAUAUUAAGUGAUACAUGAGGAUCACCCAUGUUAUUUAAUGGAUGUAAAUAGAAGGCGGACUAG [Mat - Exclusion 5 - JL mod - D70] (puzzle: Exclusion 5)	42.6			apparent KD of MS2 coat protein [1]: 51 nM; apparent KD of MS2 coat protein [3]: 44.6 nM
CUGGUCCGAGGAUAUAUUAAGUGAUACAUGAGGAUCACCCAUGUUAUUUGAUGGAUGUUAAUAGAAGGCGGACUAG [JL-ex5-3.18] (puzzle: Exclusion 5)	35.7			apparent KD of MS2 coat protein [1]: 78.3 nM; apparent KD of MS2 coat protein [3]: 57.6 nM
CUGUACUGAGGAUAUACAUGAGGAUCACCCAUGUGUUCCAGCUAGGAAACUAGCAAAUGUAGAAGGCAGUACAG [Mat - Exclusion 3 - Eli Mod - D50] (Eterna round: R97, puzzle: Exclusion 3)		307	342	
CUGUACUGAGGAUAUACAUGAGGAUCACCCAUGUGUUCCUGCUAGGAAACUAGCAAGGGUAGAAGGCAGUACAG [Mat - Exclusion 3 - Eli Mod - D46] (Eterna round: R97, puzzle: Exclusion 3)		100	15.7	
CUGUUCCGUGUAGGAUAUGCAUAUUCCCAUUAUGCAGAAGGACAUGAGGAUCACCCAUGUAUGUUAUUAUCAUGUGUUACAUGC [Design 8] (Eterna round: R96, puzzle: Exclusion NG 1)		635	36.4	apparent KD of MS2 coat protein [4]: 31.3 nM
CUUAAAAGGUAGGAUAUGCUAGACGAAAGUCUAGCAGAAGGACCUACAUGAGGAUCACCCAUGUGUCCAAUAAG [Mat - Exclusion 6 - Eli Mod - D23] (Eterna round: R97, puzzle: Exclusion 6)		50.6	86.3	
CUUAACUCAGGAUAUGCGGCGACAAACAUGAGGAUCACCCAUGUAAAUUGGUGAACCUGAGCAGAAGGGAGUACAA [EX5 B.2] (Eterna round: R97, puzzle: Exclusion 5)		66.4	22.6	
CUUAGACAUGAGGAUCACCCAUGUGAGGAUAUGAAAUUAAUUAAUUAUUAAGUAUGAAUCAGAAGGCACAUAUG [Mat - Mod of Hyphema D36] (puzzle: Exclusion 1)	81.6			apparent KD of MS2 coat protein [1]: 79.9 nM; apparent KD of MS2 coat protein [3]: 78.9 nM
CUUAGACAUGAGGAUCACCCAUGUGAGGAUAUGAUGCGAUCGUGCUGACAUGAUCGCAUCAGAAGGCACAAAUG [Mat - Mod of JL D65] (puzzle: Exclusion 1)	146			

Sequence	apparent KD of MS2 coat protein [2] [nM]	apparent KD of MS2 coat protein (input ligand: FMN 200 uM) [nM]	apparent KD of MS2 coat protein (input ligand: none) [nM]	other results
CUUAGCCUAAAAUCACGCAAGCUUCUUGCUUGUCUUAAGACAUGAGGAUCACCCAUGUCCGGGCUGAACUUAUGGAA [Enonzave] (puzzle: Sensor v3, turn-off variant 2)	21.1			apparent KD of MS2 coat protein [1]: 17.8 nM; apparent KD of MS2 coat protein [3]: 17.4 nM
CUUCGUAUAGAGGAUAUAGGAUACCUCGGUGUCCUAGAAGGCUGUACAUGAGGAUCACCCAUGUACUUCAGAUC [Exclusion 6 - B - 14:d] (puzzle: Exclusion 6)	12.6			
CUUGUGUGAGGAUAUCAGUAGUAGUACGAUAGUAUUACUGCUGAGAAGGCACAUGAGGAUCACCCAUGUUCUUC [Exclusion 4 - Mod Omei Ex4 344 mod v.4] (puzzle: Exclusion 4)	23.6			
CUUGUGUGAGGAUAUGCGUAGGCAGUAAGUAAGUAGCCGGAGCAGAAGGCACAUGAGGAUCACCCAUGUGUUAC [EX4 B.1] (Eterna round: R97, puzzle: Exclusion 4)		121	72.6	
CUUGUUUAUGUAGGAUAUGCCUGGCGUGCCUUUGCAGAAGGACAUGAGGAUCACCCAUGUAUUGCGGUCUGCGUUCAGAUCGCA [salish99_ExNG1_r4_045] (Eterna round: R96, puzzle: Exclusion NG 1)		34.6	34.5	apparent KD of MS2 coat protein [4]: 23.2 nM
CUUUAGUGAGGAUAUCAGUAGUAGAACAAUAGUACUACUACUGAGAAGGCACAUGAGGAUCACCCAUGUUCCUC [Fiskers Ex 4 Super stable 44 mod 8] (puzzle: Exclusion 4)	34.5			
CUUUUGUGAGGAUAUCAGGUGUGCUAGCGUACUGGUACAUCUGAGAAGGCACAUGAGGAUCACCCAUGUUCCUC [JL-ex4-3.17 Brourd mod] (puzzle: Exclusion 4)	39.1			
CUUUUGUGAGGAUAUCAGUAGUAAAUAAAUAAAAUUAAUACUGAGAAGGCACAUGAGGAUCACCCAUGUUCCUC [Mat - Exclusion 4 - Mod of Salish - D63] (puzzle: Exclusion 4)	33			
CUUUUGUGAGGAUAUCAGUAGUAAAUUAAUAAAAUUACUACUGAGAAGGCACAUGAGGAUCACCCAUGUUCCUC [salish99_ex3_r3_078] (puzzle: Exclusion 4)	41.9			
CUUUUGUGAGGAUAUCAGUAGUAAUAAUAUAAAAUUACUACUGAGAAGGCACAUGAGGAUCACCCAUGUUCCUC [salish99_ex3_r3_102] (puzzle: Exclusion 4)	36.3			
CUUUUGUGAGGAUAUCAGUAGUUAAAAAAUAAAAUUACUACUGAGAAGGCACAUGAGGAUCACCCAUGUUCCUC [salish99_ex4_r3_016] (puzzle: Exclusion 4)	40.5			
CUUUUGUGAGGAUAUUAGUAGUAAAAAAAUAAAAUUACUACUGAGAAGGCACAUGAGGAUCACCCAUGUUUCUC [salish99_ex4_r3_037] (puzzle: Exclusion 4)	29.2			
CUUUUGUGAGGAUAUUAGUAGUAAAUAAAUAAAAUUACUACUGAGAAGGCACAUGAGGAUCACCCAUGUUCUUC [salish99_ex4_r3_066] (puzzle: Exclusion 4)	18.8			
CUUUUGUGAGGAUAUUAGUAGUAAUACAAUAGUAUUACUACUGAGAAGGCACAUGAGGAUCACCCAUGUUCCUC [Ex4 344 Omei mod 5] (puzzle: Exclusion 4)	36.5			
GAAAACGCAGAGGAUAUUUCAGGUCAAAGCUGCAAAGAAGGCUGCACAUGAGGAUCACCCAUGUGGUCAAUAAA [Mod of Quesina 21 - Jieux - Exclusion 6] (Eterna round: R97, puzzle: Exclusion 6)		419	34.3	
GAAAACGUAGGAUAUUAAUACUUAUACAUGAGGAUCACCCAUGUUUGGUGGGUCAAAGAAUGAGAAGGGCGAUGAA [EX5 #10] (Eterna round: R97, puzzle: Exclusion 5)		261	376	
GAAAAGGAAGGAUAUACGAAAAAAAAGGGUAGAAAAAAAACACAUGAGGAUCACCCAUGUAGAAGGUCCAAAAG [salish99_ex2_r3_092] (puzzle: Exclusion 2)	43.5			apparent KD of MS2 coat protein [1]: 151 nM; apparent KD of MS2 coat protein [3]: 54.5 nM
GAAAAGGUAGGAUAUACGAAAAAAAAAGGUAGAAAAAAAACACAUGAGGAUCACCCAUGUAGAAGGACCAAAAG [salish99_ex2_r3_070] (puzzle: Exclusion 2)	51.5			apparent KD of MS2 coat protein [1]: 37.4 nM; apparent KD of MS2 coat protein [3]: 30.6 nM
